Laboratory results reported in the supplement of paper PMC7125110.
± gives the standard error. Variants at the floor of the assay were thinned out.

B1: glmS ribozyme (parent)
chain: AUAAAAGCGCCAGAACUACAGAAAUGUAGUUGACGAGGAGGAGGUUUAUCGAAUUUUCGGCGGAUGCCUCCAAA

Variants of: B1
Experiment: self-cleavage kobs at 2500 uM GlcN6P; higher = faster cleavage; RNA array
Conditions: with glucosamine-6-phosphate
Procedure, shortened: (§1)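 E. coli RNA polymerase transcribed barcoded ribozyme variants in situ on sequenced MiSeq chips, which were tracked via a hybridised Cy3 probe at 37 °C. Tiles were imaged over ~14 h after glucosamine-6-phosphate (40 μM to 10 mM) in HEPES/KCl/Mg(OAc)2 buffer was flowed in. Normalised per-tile medians were fit to one- or two-exponential decays for kobs, and kcat and KM came from weighted Michaelis–Menten fits.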

Variant | self-cleavage kobs at 2500 uM GlcN6P [s⁻¹]
A15G G37C U57G C67U | < 1e-05
U45G U57A | 5.34e-05 ± 1.2e-05
C8A C34G G66C | < 1e-05
C50A A53U C67U C68G | 4.54e-05 ± 2.1e-05
C10U G40A C70G | < 1e-05
A42G G43U G60U C61A | < 1e-05
G7A G38C A64C | < 1e-05
A12G G29U C58A G59U C67A | < 1e-05
C16G G32U G66A | 0.000109 ± 3.9e-05
G29U U30A A33G G37U | < 1e-05
G13U C19A C70U | 0.000171 ± 2.8e-05
A36U G40U G41C | < 1e-05
G32C A33U G40U | < 1e-05
U31G U49G G59C | < 1e-05
G7A A12G A15U G44U U45A A53C | < 1e-05
U46A C67G C68U | 0.000113 ± 5.1e-05
A15C G66C | 0.000277 ± 0.00013
C10U A53G G66U C68G | 4.34e-05 ± 1.4e-05
U30A G43U C61A C71U | < 1e-05
A14U C67A C71U | 0.000265 ± 5.2e-05
A12C A36G A42U U45A G51U | < 1e-05
C10U G26A | 7.4e-05 ± 2.8e-05
C8A C10U A39G U57C | < 1e-05
C8A U46G U55A | < 1e-05
A42G C61A C70A | < 1e-05

Variant | self-cleavage kobs at 2500 uM GlcN6P [s⁻¹]
C16U G32U U46G | 6.51e-05 ± 2.5e-05
A12U C34A G35A U49G | < 1e-05
G9U A39G G44C C67G | < 1e-05
G13U A39G C71A | 0.000144 ± 4.9e-05
A12U A42G A64U | 6.81e-05 ± 2.1e-05
A12G A14U U49C C50G C61U | < 1e-05
C16A C34A U65A | < 1e-05
A33C G35A G38C A52U U65C C68G | < 1e-05
A12U G37U G38A | < 1e-05
G9A U31C A52U | < 1e-05
G37U G44U U54A | < 1e-05
C8G A12G G51U C58U C67A C68U | 0.000214 ± 7.9e-05
A36C G37A G51C C61U | < 1e-05
G7U C16U U46G | < 1e-05
A12U A36C G40U U46A C61G | < 1e-05
U30G A33C G66U | < 1e-05
G29C G32C | 2.89e-05 ± 9.4e-06
A14C G29U A53G U65G | 6.14e-05 ± 1.8e-05
U46C A52C G60U C61U | < 1e-05
A6C A12G U55C C70A | < 1e-05
G9U A14G U45A C67A | < 1e-05
A14C U31A A42C A48G C71G | < 1e-05
G9C A15U G66C C70G | < 1e-05
A12U G13A G38U | < 1e-05
A12C A52U C67U | 0.000185 ± 4.2e-05

Variant | self-cleavage kobs at 2500 uM GlcN6P [s⁻¹]
C34G G51U U56C C67U | < 1e-05
U30G G43U U47A U56A | < 1e-05
G40A G43C G60C C67U | < 1e-05
A48U C50U U56C G63A A64C U65A | < 1e-05
A6G G51C G62A | < 1e-05
G37U G44U C58A C71A | < 1e-05
G32C G41A G63A C70U | < 1e-05
G35C G37A U49A A52G A53U U56G C61G | < 1e-05
C16U G37U G41A | < 1e-05
C11U U30C A52G A64U | < 1e-05
G44C U49A G60A G66U | < 1e-05
C8A G37A A42C | < 1e-05
G26U C67U | 0.000381 ± 0.00017
G7U A33U G35C G44C U45G G66U | < 1e-05
C10G A12U G13C G32A | < 1e-05
A6U A14C U45A A48G G66U | < 1e-05
U31C G35A A48C | < 1e-05
U30G G41U G44U | < 1e-05
G35C C50G U54G | 8.42e-05 ± 1.5e-05
G9C C10U A15G U69G | < 1e-05
U45C U55A U65C | 4.27e-05 ± 1.2e-05
G32C G37C C50A G60C | < 1e-05
U31A A33U U56G U65G C68A | < 1e-05
C8U C58G C70U | < 1e-05
C10G A15G C34A G37A | < 1e-05

Variants of: B1
Experiment: self-cleavage kobs at 10000 uM GlcN6P; higher = faster cleavage; RNA array
Conditions: with glucosamine-6-phosphate
Procedure, shortened: as §1

Variant | self-cleavage kobs at 10000 uM GlcN6P [s⁻¹]
U45G U57A | 9.86e-05 ± 1.3e-05
C16G G32U G66A | 0.000209 ± 5.7e-05
C8A U46G U55A | < 1e-05
C16U G32U U46G | 0.000138 ± 2.5e-05
G13U A39G C71A | 0.000285 ± 6.4e-05
C16A C34A U65A | < 1e-05
G9A U31C A52U | < 1e-05
G29C G32C | 9.51e-05 ± 1.2e-05
U46C A52C G60U C61U | < 1e-05
G40A G43C G60C C67U | < 1e-05
G35C G37A U49A A52G A53U U56G C61G | < 1e-05
C16U G37U G41A | < 1e-05
G35C C50G U54G | 0.000106 ± 1.6e-05
